Sequences and labels used below:
B1: PAK3 (protein)
chain: MSDGLDNEEKPPAPPLRMNSNNRDSSALNHSSKPLPMAPEEKNKKARLRSIFPGGGDKTNKKKEKERPEISLPSDFEHTIHVGFDAVTGEFTGIPEQWARLLQTSNITKLEQKKNPQAVLDVLKFYDSKETVNNQKYMSFTSGDKSAHGYIAAHPSSTKTASEPPLAPPVSEEEDEEEEEEEDENEPPPVIAPRPEHTKSIYTRSVVESIASPAVPNKEVTPPSAENANSSTLYRNTDRQRKKSKMTDEEILEKLRSIVSVGDPKKKYTRFEKIGQGASGTVYTALDIATGQEVAIKQMNLQQQPKKELIINEILVMRENKNPNIVNYLDSYLVGDELWVVMEYLAGGSLTDVVTETCMDEGQIAAVCRECLQALDFLHSNQVIHRDIKSDNILLGMDGSVKLTDFGFCAQITPEQSKRSTMVGTPYWMAPEVVTRKAYGPKVDIWSLGIMAIEMVEGEPPYLNENPLRALYLIATNGTPELQNPERLSAVFRDFLNRCLEMDVDRRGSAKELLQHPFLKLAKPLSSLTPLIIAAKEAIKNSSR
modifications: left off: small tags and cut ends
B2: MINK1 (protein)
chain: MGDPAPARSLDDIDLSALRDPAGIFELVEVVGNGTYGQVYKGRHVKTGQLAAIKVMDVTEDEEEEIKQEINMLKKYSHHRNIATYYGAFIKKSPPGNDDQLWLVMEFCGAGSVTDLVKNTKGNALKEDCIAYICREILRGLAHLHAHKVIHRDIKGQNVLLTENAEVKLVDFGVSAQLDRTVGRRNTFIGTPYWMAPEVIACDENPDATYDYRSDIWSLGITAIEMAEGAPPLCDMHPMRALFLIPRNPPPRLKSKKWSKKFIDFIDTCLIKTYLSRPPTEQLLKFPFIRDQPTERQVRIQLKDHIDRSRKKRGEKEETE
modifications: left off: a dimerising Fc or GST
B3: NEK2 (protein)
chain: MPSRAEDYEVLYTIGTGSYGRCQKIRRKSDGKILVWKELDYGSMTEAEKQMLVSEVNLLRELKHPNIVRYYDRIIDRTNTTLYIVMEYCEGGDLASVITKGTKERQYLDEEFVLRVMTQLTLALKECHRRSDGGHTVLHRDLKPANVFLDGKQNVKLGDFGLARILNHDTSFAKTFVGTPYYMSPEQMNRMSYNEKSDIWSLGCLLYELCALMPPFTAFSQKELAGKIREGKFRRIPYRYSDELNEIITRMLNLKDYHRPSVEEILENPLIADLVADEQRRNLERRGRQLGEPEKSQDSSPVLSELKLKEIQLQERERALKAREERLEQKEQELCVRERLAEDKLARAENLLKNYSLLKERKFLSLASNPELLNLPSSVIKKKVHFSGESKENIMRSENSESQLTSKSKCKDLKKRLHAAQLRAQALSDIEKNYQLKSRQILGMR
modifications: left off: small tags and cut ends
B4: MYLK2 (protein)
chain: MATENGAVELGIQNPSTDKAPKGPTGERPLAAGKDPGPPDPKKAPDPPTLKKDAKAPASEKGDGTLAQPSTSSQGPKGEGDRGGGPAEGSAGPPAALPQQTATPETSVKKPKAEQGASGSQDPGKPRVGKKAAEGQAAARRGSPAFLHSPSCPAIISSSEKLLAKKPPSEASELTFEGVPMTHSPTDPRPAKAEEGKNILAESQKEVGEKTPGQAGQAKMQGDTSRGIEFQAVPSEKSEVGQALCLTAREEDCFQILDDCPPPPAPFPHRMVELRTGNVSSEFSMNSKEALGGGKFGAVCTCMEKATGLKLAAKVIKKQTPKDKEMVLLEIEVMNQLNHRNLIQLYAAIETPHEIVLFMEYIEGGELFERIVDEDYHLTEVDTMVFVRQICDGILFMHKMRVLHLDLKPENILCVNTTGHLVKIIDFGLARRYNPNEKLKVNFGTPEFLSPEVVNYDQISDKTDMWSMGVITYMLLSGLSPFLGDDDTETLNNVLSGNWYFDEETFEAVSDEAKDFVSNLIVKDQRARMNAAQCLAHPWLNNLAEKAKRCNRRLKSQILLKKYLMKRRWKKNFIAVSAANRFKKISSSGALMALGV
modifications: left off: a dimerising Fc or GST
B5: NEK3 (protein)
chain: MDDYMVLRMIGEGSFGRALLVQHESSNQMFAMKEIRLPKSFSNTQNSRKEAVLLAKMKHPNIVAFKESFEAEGHLYIVMEYCDGGDLMQKIKQQKGKLFPEDMILNWFTQMCLGVNHIHKKRVLHRDIKSKNIFLTQNGKVKLGDFGSARLLSNPMAFACTYVGTPYYVPPEIWENLPYNNKSDIWSLGCILYELCTLKHPFQANSWKNLILKVCQGCISPLPSHYSYELQFLVKQMFKRNPSHRPSATTLLSRGIVARLVQKCLPPEIIMEYGEEVLEEIKNSKHNTPRKKTNPSRIRIALGNEASTVQEEEQDRKGSHTDLESINENLVESALRRVNREEKGNKSVHLRKASSPNLHRRQWEKNVPNTALTALENASILTSSLTAEDDRGGSVIKYSKNTTRKQWLKETPDTLLNILKNADLSLAFQTYTIYRPGSEGFLKGPLSEETEASDSVDGGHDSVILDPERLEPGLDEEDTDFEEEDDNPDWVSELKKRAGWQGLCDR
modifications: left off: a dimerising Fc or GST
B6: MAPK8(JNK1) (protein)
chain: MSRSKRDNNFYSVEIGDSTFTVLKRYQNLKPIGSGAQGIVCAAYDAILERNVAIKKLSRPFQNQTHAKRAYRELVLMKCVNHKNIIGLLNVFTPQKSLEEFQDVYIVMELMDANLCQVIQMELDHERMSYLLYQMLCGIKHLHSAGIIHRDLKPSNIVVKSDCTLKILDFGLARTAGTSFMMTPYVVTRYYRAPEVILGMGYKENVDLWSVGCIMGEMVCHKILFPGRDYIDQWNKVIEQLGTPCPEFMKKLQPTVRTYVENRPKYAGYSFEKLFPDVLFPADSEHNKLKASQARDLLSKMLVIDASKRISVDEALQHPYINVWYDPSEAEAPPPKIPDKQLDEREHTIEEWKELIYKEVMDLEERTKNGVIRGQPSPLAQVQQ
modifications: left off: small tags and cut ends
B7: PAK1 (protein)
chain: MSNNGLDIQDKPPAPPMRNTSTMIGAGSKDAGTLNHGSKPLPPNPEEKKKKDRFYRSILPGDKTNKKKEKERPEISLPSDFEHTIHVGFDAVTGEFTGMPEQWARLLQTSNITKSEQKKNPQAVLDVLEFYNSKKTSNSQKYMSFTDKSAEDYNSSNALNVKAVSETPAVPPVSEDEDDDDDDATPPPVIAPRPEHTKSVYTRSVIEPLPVTPTRDVATSPISPTENNTTPPDALTRNTEKQKKKPKMSDEEILEKLRSIVSVGDPKKKYTRFEKIGQGASGTVYTAMDVATGQEVAIKQMNLQQQPKKELIINEILVMRENKNPNIVNYLDSYLVGDELWVVMEYLAGGSLTDVVTETCMDEGQIAAVCRECLQALEFLHSNQVIHRDIKSDNILLGMDGSVKLTDFGFCAQITPEQSKRSTMVGTPYWMAPEVVTRKAYGPKVDIWSLGIMAIEMIEGEPPYLNENPLRALYLIATNGTPELQNPEKLSAIFRDFLNRCLEMDVEKRGSAKELLQHQFLKIAKPLSSLTPLIAAAKEATKNNH
modifications: left off: a dimerising Fc or GST
B8: MAPKAPK3 (protein)
chain: MDGETAEEQGGPVPPPVAPGGPGLGGAPGGRREPKKYAVTDDYQLSKQVLGLGVNGKVLECFHRRTGQKCALKLLYDSPKARQEVDHHWQASGGPHIVCILDVYENMHHGKRCLLIIMECMEGGELFSRIQERGDQAFTEREAAEIMRDIGTAIQFLHSHNIAHRDVKPENLLYTSKEKDAVLKLTDFGFAKETTQNALQTPCYTPYYVAPEVLGPEKYDKSCDMWSLGVIMYILLCGFPPFYSNTGQAISPGMKRRIRLGQYGFPNPEWSEVSEDAKQLIRLLLKTDPTERLTITQFMNHPWINQSMVVPQTPLHTARVLQEDKDHWDEVKEEMTSALATMRVDYDQVKIKDLKTSNNRLLNKRRKKQAGSSSASQGCNNQ
modifications: left off: small tags and cut ends
B9: MAPKAPK5(PRAK) (protein)
chain: MSEESDMDKAIKETSILEEYSINWTQKLGAGISGPVRVCVKKSTQERFALKILLDRPKARNEVRLHMMCATHPNIVQIIEVFANSVQFPHESSPRARLLIVMEMMEGGELFHRISQHRHFTEKQASQVTKQIALALRHCHLLNIAHRDLKPENLLFKDNSLDAPVKLCDFGFAKIDQGDLMTPQFTPYYVAPQVLEAQRRHQKEKSGIIPTSPTPYTYNKSCDLWSLGVIIYVMLCGYPPFYSKHHSRTIPKDMRRKIMTGSFEFPEEEWSQISEMAKDVVRKLLKVKPEERLTIEGVLDHPWLNSTEALDNVLPSAQLMMDKAVVAGIQQAHAEQLANMRIQDLKVSLKPLHSVNNPILRKRKLLGTKPKDSVYIHDHENGAEDSNVALEKLRDVIAQCILPQAGENEDEKLNEVMQEAWKYNRECKLLRDTLQSFSWNGRGFTDKVDRLKLAEIVKQVIEEQTTSHESQ
modifications: left off: small tags and cut ends
B10: EPHA5 (protein)
chain: SGSCCECGCGRASSLCAVAHPSLIWRCGYSKAKQDPEEEKMHFHNGHIKLPGVRTYIDPHTYEDPNQAVHEFAKEIEASCITIERVIGAGEFGEVCSGRLKLPGKRELPVAIKTLKVGYTEKQRRDFLGEASIMGQFDHPNIIHLEGVVTKSKPVMIVTEYMENGSLDTFLKKNDGQFTVIQLVGMLRGISAGMKYLSDMGYVHRDLAARNILINSNLVCKVSDFGLSRVLEDDPEAAYTTRGGKIPIRWTAPEAIAFRKFTSASDVWSYGIVMWEVVSYGERPYWEMTNQDVIKAVEEGYRLPSPMDCPAALYQLMLDCWQKERNSRPKFDEIVNMLDKLIRNPSSLKTLVNASCRVSNLLAEHSPLGSGAYRSVGEWLEAIKMGRYTEIFMENGYSSMDAVAQVTLEDLRRLGVTLVGHQKKIMNSLQEMKVQLVNGMVPL
modifications: left off: a dimerising Fc or GST

For the data set, the system named is kinases of Table 6 on Myelin Basic Protein (MBP). The experiment in a line: Kinase assay using MBP substrate, ProQ Diamond stain (Table 6). It is filed as biochemical. The note with it: kinase printed on MBP-coated slide; 20 uM ATP, 30° C.; ProQ Diamond Microarray Stain; graded Strong/Weak/Negative. In a few lines: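 Bovine dephosphorylated MBP coated on aldehyde- or epoxy-glass slides, kinases printed on top; reaction buffer pH 7.5 with 4 mM MgCl2, 20 uM ATP, 5% DMSO, ± inhibitor, at 30° C. Phosphorylation detected by ProQ Diamond stain, 30 min in dark.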
B1: the “MBP Kinase Activity” value was “Weak”.

For B2, the “MBP Kinase Activity” value is “Weak”.

For the molecule B3, the “MBP Kinase Activity” value is recorded as “Strong”.

As for B4, the “MBP Kinase Activity” value is recorded as “Negative”.

Take B5: the “MBP Kinase Activity” value is reported as “Negative”.

As for B6, the “MBP Kinase Activity” value is “Negative”.

For the molecule B7, the “MBP Kinase Activity” value was “Negative”.

As to B8, the “MBP Kinase Activity” value is given as “Strong”.

With B9, the “MBP Kinase Activity” value is “Strong”.

As to B10, the “MBP Kinase Activity” value is “Negative”.

For the origin of these results see patent US20090099029A1, “Methods and substrates for conducting assays” (Invitrogen Corporation, priority 2005, published 2009).
